# Experimental data: US20130129730A1 (Amgen, published 2013)
# Residue numbers refer to the chain shown, from its start.
# T1: human EpCAM (human, UniProt P16422 24-314)
# T1 construct: whole, on cells; also called Epithelial cell adhesion molecule; CD326
# T1 sequence (looked up): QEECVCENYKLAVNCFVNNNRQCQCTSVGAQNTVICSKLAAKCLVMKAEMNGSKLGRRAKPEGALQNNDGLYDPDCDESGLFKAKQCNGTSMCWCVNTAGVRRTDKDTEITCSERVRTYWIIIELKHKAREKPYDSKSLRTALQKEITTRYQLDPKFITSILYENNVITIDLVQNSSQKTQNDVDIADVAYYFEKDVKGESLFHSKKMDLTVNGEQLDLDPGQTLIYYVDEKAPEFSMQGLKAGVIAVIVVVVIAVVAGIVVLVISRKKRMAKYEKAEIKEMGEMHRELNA
# B1: scFv PM52-C3 (scFv)
# scFv: QVQLVQSGAEVKKPGASVKLSCKASGYTFTYFDINWVRQTPEQGLEWMGGISPGDGNTNYNENFKGRVTMTRDTSSSTAYMELSRLRSDDTAVYYCARDGNFPYYAMDSWGQGTTVTVSSGGGGSGGGGSGGGGSDVVMTQSPLSLPVTLGEPASISCRSSQSLVYSNGNTYLHWYQQKPGQSPRLLIYKVSNRFSGVPDRFSGSGSGTDFTLKISRVEAEDVGVYFCSQSTHVPYTFGQGTKLEIKDYKDDDDK
# notes: Tested as periplasmic preparation from E. coli; also called PM52C3-VH-VL; not shown: His6-tag
# B2: scFv PM52-H3 (scFv)
# scFv: B1 scFv with S76K
# notes: Tested as periplasmic preparation from E. coli; also called PM52H3-VH-VL; not shown: His6-tag
# B3: scFv PM91-B6 (scFv)
# scFv: B1 scFv with M107L, D108T, S109N
# notes: Tested as periplasmic preparation from E. coli; also called PM91B6-VH-VL; not shown: His6-tag
# B4: scFv PM75-A10 (scFv)
# scFv: B1 scFv with D108V, S109N
# notes: Tested as periplasmic preparation from E. coli; also called PM75A10-VH-VL; not shown: His6-tag
# B5: scFv PM74-G3 (scFv)
# scFv: QVQLVQSGAEVKKPGASVKLSCKASGYTFTYFDINWVRQAPEQGLEWMGGISPGDGNTNYNENFKGRVTMTIDTSSSTAYIELSRLTSDDTAVYYCARDGNFPYYAMDSWGQGTTVTVSSGGGGSGGGGSGGGGSDVVMTQTPLSLPVSLGDQASISCRSSQSLVHSNGNTYLHWYLQKPGQSPKLLIYKVSNRFSGVPDRFSGSGSGTDFTLKISRVEAEDLGVYFCSQSTHVPYTFGGGTKLEIKDYKDDDDK
# notes: Tested as periplasmic preparation from E. coli; also called PM74G3-VH-VL; not shown: His6-tag
# Molecular target: T1, human EpCAM
# Assay: flow cytometry, scFv periplasmic preparation on human EpCAM transfected CHO cells
# Description: Periplasmic preparations of E. coli clones producing the scFv molecules EpCAM 4-7, PM74-G3, PM52-H3, PM52-C3, PM75-A10 and PM91-B6 are used to examine specific binding to human PSMA or human EpCAM transfected cell lines. As negative control untransfected CHO cell are used.
# For flow cytometry 2,5×10⁵ cells are incubated with 50 μl of scFv periplasmic preparation. The binding of scFv to the cells is detected with an anti-His antibody (Penta-His Antibody, BSA free, Qiagen GmbH, Hilden, FRG) at 2 μg/ml in 50 μl PBS with 2% FCS. As a second step reagent a R-Phycoerythrin-conjugated affinity purified F(ab′)2 fragment, goat anti-mouse IgG (Fc-gamma fragment specific), diluted 1:100 in 50 μl PBS with 2% FCS (Dianova, Hamburg, FRG) is used. The samples are measured on a FACSscan (BD biosciences, Heidelberg, FRG).
# Flow cytometry is performed on a FACS-Calibur apparatus; the CellQuest software is used to acquire and analyze the data (Becton Dickinson biosciences, Heidelberg). FACS staining and measuring of the fluorescence intensity are performed as described in Current Protocols in Immunology (Coligan, Kruisbeek, Margulies, Shevach and Strober, Wiley-Interscience, 2002).
row,binding result,Binder
1,no binding,B1
2,no binding,B2
3,no binding,B3
4,no binding,B4
5,no binding,B5
